In the supplement of paper PMC10567573:
± gives the standard deviation.

Assay: protein stability index of a GFP-peptide fusion (GPS, HEK-293T) (PSI 1-6); higher = more stable
Conditions: c terminus: a fixed tail appended
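Note: 24-mer peptide tiles fused after GFP, lentivirally expressed, FACS-sorted into six equal bins by GFP/DsRed ratio, decoded by Illumina sequencing, PSI is the read-weighted mean bin number.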

Sequence | protein stability index (treatment: DMSO) | protein stability index (treatment: MLN4924 1 uM, 8 h)
IKGKEGSALTEGAKEEGGEEVAKA [EPB41L3] | 5.81 ± 0.17 | 5.86 ± 0.12
ILAFLVLEAVAGALVVALWGPLQD [TSPAN10] | 2.85 ± 0.24 | 3.03 ± 0.27
ILDIHFLSQADFLVCTFSSQVCRV [FUT8] | 3.52 ± 0.23 | 3.09 ± 0.16
ILHLICLLEKVPCTLEQDHFKKQT [FEM1C] | 2.82 ± 0.71 | 2.25 ± 0.45
ILISFTCRFLLNSRVTDAAFNFLL [TMEM120A] | 2.9 ± 0.38 | 3.25 ± 0.23
ILKRTGQRYEHGRTLKSYLGLTNQ [ZNF649] | 2.44 ± 0.24 | 2.63 ± 0.099
ILTTSNITEKIDVAFVDRADIKQY [TRIP13] | 2.88 ± 0.2 | 3.02 ± 0.12
ILVLKTDSQDLVASFRVTTGTSNT [RBBP5] | 2.2 ± 0.41 | 2.36 ± 0.53
IMLRSNESFTMDDMSWTCGNQDYK [VDR] | 2.86 ± 0.12 | 2.61 ± 0.27
INLATMNSCINPIALYFVSKKFKN [EDNRA] | 2.83 ± 1.4 | 2.01 ± 0.13
IPAVLTVSMLGYPFILPDMVGGNA [MYORG] | 2.87 ± 0.51 | 2.63 ± 0.38
IPISLETQAHIQECKHPSVFQHGD [MCOLN1] | 4.26 ± 0.23 | 4.21 ± 0.14
IQAEERLDMEKRRCRQSLEDSESL [LRRC45] | 5.08 ± 0.27 | 5.16 ± 0.1
IQKRNQRQSGDRRQLPPPPTPANE [WAS] | 5.29 ± 0.23 | 5.16 ± 0.21
IRQLATSGRFIVIIPRTVIDGLDL [SMG5] | 2.88 ± 0.61 | 2.68 ± 0.7
IRSFGHFIARLQGSILQFNPEVGI [SMG5] | 2.45 ± 0.27 | 2.35 ± 0.25
ISAVNYDFDEEYFSNTSELAKDFI [DAPK3] | 3.01 ± 0.21 | 3.28 ± 0.58
ISFHFEVTNHNIRLFEDVRSWMFR [TRIM43] | 2.7 ± 0.96 | 3.24 ± 0.28
ISQHGDPLLSNTFTETNNHWPQGP [EMID1] | 3.87 ± 0.29 | 4.08 ± 0.16
ISSSSFGAEPSAPGGGGSPGACPA [RTN3] | 4.72 ± 0.51 | 4.97 ± 0.089
ISSVLAGGSCRAPSTYGGGLSVSS [KRT16] | 2.38 ± 0.33 | 2.27 ± 0.27
ITAGAHRLWSHRSYKARLPLRLFL [SCD] | 2.6 ± 0.63 | 2.47 ± 0.64
ITEEKVCMVCKKKIGNSAFARYPN [VPS39] | 2.73 ± 0.31 | 3.43 ± 0.53

Sequence | protein stability index (treatment: DMSO) | protein stability index (treatment: MLN4924 1 uM, 8 h)
ITESFTELARIVLLRHGMDRLWRP [RAB40B] | 2.84 ± 0.1 | 2.86 ± 0.25
ITTRVNSEQEHFLIVPFGLLYSEV [ADD1] | 2.74 ± 0.79 | 2.61 ± 0.81
ITYESSQVDPGTDLEPGVLMSAQT [EPB41L3] | 4.29 ± 0.33 | 4.7 ± 0.085
IVETLTVGCKGSKAGIEQEGYWLP [ZMYND11] | 2.21 ± 0.18 | 2.26 ± 0.14
IVSLLLGTIHALIFAWNKWIDIKQ [STEAP1] | 2.06 ± 0.44 | 2.17 ± 0.29
KADLEVSNRHGHTCLMISCYKGHK [FEM1C] | 3.03 ± 0.36 | 2.91 ± 0.33
KAGSSEWLAVDGLVSPSNNSKEDA [ATF4] | 5.13 ± 0.19 | 5.14 ± 0.25
KAHSGRIPISLETQAHIQECKHPS [MCOLN1] | 4.5 ± 0.12 | 4.65 ± 0.14
KAMLQLHERGLKLHQTIYNQACKL [INTS4] | 2.23 ± 0.44 | 2.21 ± 0.26
KAQIWDTAGQERYRAITSAYYRGA [RAB11A] | 2.88 ± 0.16 | 2.98 ± 0.31
KARSYSYPHCTGISQQDPESDSQG [ZC2HC1C] | 5.28 ± 0.28 | 5.25 ± 0.076
KAVEEELDAEDRPAWNSKLQYILA [SLC6A17] | 2.96 ± 0.38 | 3.15 ± 0.24
KCLKFLGSRHPTLVLPLVPELLST [INTS4] | 2.29 ± 0.41 | 2.23 ± 0.18
KDGKNWNSNQATDIMETSGWKSMI [SPOPL] | 3.38 ± 0.32 | 3.54 ± 0.4
KDIAPEKQLLNSAVIAQQRRKPDP [DLC1] | 5 ± 0.086 | 5.25 ± 0.17
KDVMEKREDSKEAEKSGEATDGAR [CHGA] | 5.79 ± 0.11 | 5.68 ± 0.37
KEASRHAIMRSPQMVSAIVRTMQN [CTNNB1] | 3.15 ± 0.32 | 3.3 ± 0.35
KECVSILPRKESPSVRSSKDGKLL [TNFSF13B] | 4.53 ± 0.11 | 4.56 ± 0.091
KEDLIIPHHHSFYDFIVTKARGKS [FAM50A] | 3.4 ± 0.095 | 3.73 ± 0.16
KEIESQGSIPGFLISSGMSSHKQG [TAF7L] | 4.42 ± 0.2 | 4.11 ± 0.48
KEVGSHFDDFVTNLIEKSASLDNG [SOAT1] | 4.19 ± 0.26 | 4.46 ± 0.37
KFKGWVSYSTSEQAELSYKKVSEG [DLC1] | 3.52 ± 0.22 | 3.54 ± 0.39
KFYAVLKGTILYLQKDEYRPDKAL [PSD2] | 2.83 ± 0.53 | 2.58 ± 0.44

Sequence | protein stability index (treatment: DMSO) | protein stability index (treatment: MLN4924 1 uM, 8 h)
KIKDARKGPLVPFPNQKSEAAEPP [KMT5A] | 4.95 ± 0.22 | 5.11 ± 0.19
KIKDEVHPEVKCVGSVALTALVTV [C8orf76] | 2.61 ± 0.26 | 2.11 ± 0.85
KIYFTDSSSKWQRRDYLLLVMEGT [APMAP] | 2.68 ± 0.45 | 2.15 ± 0.37
KKVLNLLKGAFPARLKKVLIVGAP [PTPN9] | 2.81 ± 0.83 | 2.99 ± 0.43
KLDPTLSSCFFIESCGAQVPVEGS | 3.02 ± 0.41 | 3.04 ± 0.5
KLKESTVRRRYSDFEWLRSELERE [SNX3] | 2.99 ± 0.44 | 3.13 ± 0.31
KLNCDPSRIYKPQTRLKRKQPVRK [DFFB] | 3.36 ± 0.56 | 3.71 ± 0.63
KLPFCAMGVSSVIHPKNPHAPTIH [CPOX] | 2.52 ± 0.2 | 2.52 ± 0.31
KLPLPIALRSHLKSFSMANGLNAR [RAB40B] | 2.41 ± 0.23 | 2.46 ± 0.19
KLWSFFIYLLRRQIRTVIQYQTVR [CTDNEP1] | 2.99 ± 0.3 | 2.94 ± 0.37
KNEPYLEAACNDVDRWPAPVPGKT [DENND6A] | 4.62 ± 0.23 | 4.67 ± 0.19
KNTFEFLKENNFQPYPLPHVRHMA [CLK3] | 2.54 ± 0.26 | 2.51 ± 0.12
KPASKPAGSSHTPSSQSSSGGGRD [ELOA2] | 5.47 ± 0.3 | 5.48 ± 0.19
KPKTTNIELQGVPNDEVHPLLGVK [RBBP5] | 4.65 ± 0.7 | 4.75 ± 0.34
KPPYSYATLICMAMQASKATKITL [FOXJ1] | 2.78 ± 0.57 | 2.8 ± 0.53
KRQVTHFQFLSWPDYGVPSSAASL [PTPN9] | 2.21 ± 0.35 | 2.38 ± 0.18
KRYSMYLTPKGGVRTSYQPSSPGR [TRIM29] | 3.15 ± 0.28 | 3.37 ± 0.41
KSAAMLAVFAVSAVVHEYALAVCL [SOAT1] | 3.22 ± 0.64 | 3.32 ± 0.54
KSLEWSPWNCILLTKDEAAAHLKL [IQUB] | 2.41 ± 0.22 | 2.56 ± 0.11
KSTWPRYSKPGLSMRLLESKKGLS [TCF25] | 2.92 ± 0.34 | 3.12 ± 0.17
KTRTVFSSTQLCVLNDRFQRQKYL [NANOGP8] | 2.5 ± 0.12 | 2.67 ± 0.29
KVIYDFIEKTGGVEAVKNELRRQA [WASL] | 2.13 ± 0.41 | 2.28 ± 0.23
KVNQNQAKRCTVIGGSGFLGQHMV [NSDHL] | 2.22 ± 0.21 | 2.07 ± 0.2

Sequence | protein stability index (treatment: DMSO) | protein stability index (treatment: MLN4924 1 uM, 8 h)
KWTGDFFNKGIYDIHVGLRGVPLL [CLCN6] | 2.86 ± 0.8 | 2.24 ± 0.44
LAAPSLHVKEQLPCAGLNCQALDA [TLE6] | 3.92 ± 0.25 | 3.97 ± 0.28
LAGGLCVGIYATNSAEACQYVITH [ACSBG2] | 2.84 ± 1.1 | 2 ± 0.36
LAPVRQQELASLLRTYLARLPWAG [PBXIP1] | 2.22 ± 0.28 | 2.12 ± 0.27
LAQAAGFAPQTGARPSETFARFCK [DNAAF3] | 3.52 ± 0.23 | 3.57 ± 0.4
LASTSKPVVKLLHNRSNNKYSYTS [KCTD13] | 3.08 ± 0.2 | 3.27 ± 0.28
LAVCLAPSLFHLNTLKRENSSPRV [DLC1] | 2.24 ± 0.24 | 2.11 ± 0.2
LCPGDLIQAINGESTELMTHLEAQ [PDLIM4] | 4.51 ± 0.26 | 4.54 ± 0.094
LCQCHEGFALNPDKKTCTKIDYCA [MATN2] | 2.95 ± 0.29 | 3.35 ± 0.6
LDMDEGTLSFIVDGQYLGVAFRGL [SPSB4] | 2.6 ± 0.46 | 2.26 ± 0.59
LDQAPKARKYFERLPGGGWTLRRT [DYRK1B] | 3.48 ± 0.27 | 3.33 ± 0.33
LDQLLRHVMNPLETLSITNCRLSE [PRAME] | 2.59 ± 0.62 | 2.39 ± 0.49
LDRHQLPLDDALLSFAHANCTLII [DPCD] | 2.69 ± 0.56 | 2.63 ± 0.48
LEALIDTIQKQLKDHSCKDNIREA [EFHC1] | 3.55 ± 0.21 | 3.65 ± 0.25
LEAPEDIGSTSESKDWEEVVVESM [MIA2] | 5.4 ± 0.23 | 5.58 ± 0.013
LEELIDMAVLEEIQQELIKQEQSI [RPAIN] | 3.34 ± 0.31 | 3.44 ± 0.3
LEENELTSLAEDLLGLTDPNGGLA [TRADD] | 4.49 ± 0.27 | 4.43 ± 0.29
LEKEIEVLERGDSAPATAKENAAA [PALM] | 5.34 ± 0.2 | 5.62 ± 0.2
LEKGLEPEPQVPGPAHGPAQEEPW [ZNF232] | 5.35 ± 0.46 | 5.35 ± 0.25
LENLCENASTLRTINIKCHVHDPH [FBXO39] | 3.59 ± 0.27 | 3.59 ± 0.036
LEQFVTRFLLKETLNQLQSLQNSL [NECAB1] | 2.87 ± 1.3 | 2.76 ± 0.27
